# Laboratory results taken from the DeepSol protein solubility set.
# Assay: soluble on expression in E. coli; label from the status in PepcDB or PDB records
row,Sequence,soluble on expression in E. coli
1,MSLAMRFMLLLMLVGMAHGALANPLRVCVGDVNVWPPFTYWQGSSAQEKAESLTGSATTLVLEALKKQEIEYQLHFMPWARVQQELAQATGRCDLTWDASYRAERAEYSYFSVPLYTIQLGYFTLPENSKDLNLATDSDVLCGVNGFNYQNFALPREPSLTLNSVQQALNMLQKERCDWFVSEIEPIYGGIMLGLYQLDRPIQHHFLGKTKEYHVQVRRSLPNAMPLLNGLNEYILQAQSSGHAQAVFDRFLSITQTEGHHHHHH,soluble
2,DIESGLYALIGLFATSKTIDLVQVGLNQSKTVFIISENQEAIRQAILFKIDRGITRLSAKGGYTEDDKQILLCVIAQSEFSRLKEVIKEIDPEAFVVVMSASEVMGEGFTS,not soluble
3,MKHLVICIALLTVGACCFAQQKKVASHKAASGNPVFQGWYADPEGIIYDDTYWIFPTWSDLYENQTFFDCFSSKDLVNWTKHASVLDTTAVKWAKKAMWAPSVIRKNGKYYIFFGANDVHEGEIGGIGVAVSDRPEGPYKDLLGKPLINEIVNGAQPIDQFVYNDNGHYYMYYGGWGHCNVVQLNDDFTGLVPFEDGTVYKEVTPENYVEGPFMFKKDGKYYFMWSEGGWGGPDYSVAYAISDSPFGPFKRVAKILQQDPSVATSAGHHSLLHAPGTDDYYIVYHRRPLNDNARDHRVTCIDKMTFDKDGFINPVKMTFEGVPAQKIKKSKKK,not soluble
4,MRANLGVPSTIAQSRWAESATSFPTATVAAAGGKDIEIERDVAHNQPGGIFPNVIFLESLDFSACFVDAHQVFVSDGSVMFRRWDRQKKTGRKK,not soluble
5,MNIIIATTKSWNIKNAQKFKKENESKYNTTIITNKDELTFEKVKLINPEYILFPHWSWIIPKEIFENFTCVVFHMTDLPFGRGGSPLQNLIERGIKKTKISAIKVDGGIDTGDIFFKRDLDLYGTAEEIFMRASKIIFNDMIPELLTKRPVPQKQEGEATVFQRRKPEQSEISPDFDLEKIYDYIRMLDGEGYPRAFIKYGKYRLEFSRASMKNGKIIADVEIIEGDENE,soluble
6,MGSDKIHHHHHHMASSGTEHDAMRARLVDVAQAIVEERGGAGLTLSELAARAGISQANLSRYFETREDLMEAIADYWFHPMVEIMEDVLASDLPPRRKMYEFFARRFVVMRRKWEADPVKLQTYIEVGNDYFEQVRSYIDLADHYLGEIIGEAMSDGAFSGLEVDETISLVNQMCAPYCALNTMTTFMERLSEDKLARIVDAVFDGLSAQDRGARSLTGLRAA,not soluble
7,MGSDKIHHHHHHMDFIEVYPNAIPDELCDRLISTLEQHPGVVDGRTGNGVDIEKKLSRDLTLDSFADLIPLRNELLSHALKGTVEYFDKYSMALMGAVAVKVADNQGQPVTLNPDNYAELGHPRADALVKYLYRSGTINVQKYPKGKGGYPHWHSEQFPQAGHNEALHRVVLYMFYLNDVEEGGETEFFYQGRKLKPQKGTMVIAPAGFTHTHRGNVPVSGDKYIATSWVMFNRAEQLYVVG,not soluble
8,MGGSHHHHHHGMASALERYAAALEEVADGARQQERHYQLLSALQSLVKELPSSFQQRLSYTTLSDLALALLDGTVFEIVQGLLEIQHLTEKSLYNQRLRLQNEHRVLRQALRQKHQEAQQACRPHNLPVVQAAQQRELEAVEHRIREEQRAMDQKIILELDRKVADQQSTLEKAGVAGFYVTTNPQELMLQMNLLELIRKLQQRGCRAGNAALGLGGPWQSPAAQCDQKGSPVPP,not soluble
9,MCGIVGYIGNNEKKQIILNGLKELEYRGYDSAGMAVMQEGELSFFKAVGKLENLANKCTDFESQGYGFAIGHTRWATHGKPTEINAHPHLGQYSCVIHNGIIENYKEIKDKLEKEGVSFLSQTDTEVIVQLFEFYARNLGVFEAWQKTIKELRGAFATLLVTKKDPNHVYFAKNAAPLIIGKNANKEWYFSSGDAPLIGSCDEVMYLEDLSLGYASKDELVVYENDILKSLCFSKLSGDKAYAKKDGFRFFMEKEIYEQSRVMSEVLMGRIQGDEVVFDELNNEDLSQVDEITLCACGTSYHAAMASAYLFERIAKVKAKVEIASEFRYREAIIKKDSLFIVISQSGETADTLEALKIAKEQGAKTFAICNVDNSNIVRLAHLSLLTRAGIEKGVASTKAFATQVLTLWMLAIFMAQKRNLNVSAEIKALLHTPNCVSVKQALHEKIHRLSKRYLDGHGFFFIGRDVFYPLALEGALKLKELSYLHAEGYPAGEMKHGPIALADSKLYTIALMPKHMLYEKTKSNVEELIARDSTVLSISPLEFDLSDDFIKTNEQDHYMCEFFEMMVITQLLAMEISIRLGNDVDMPRNLAKSVTVE,not soluble
